The record followed here is publication PMC11211670 (mLife, 2024).

In general, stoichiometry N refers to the number of molecules, sites or subunits per partner or assembly.

Series [1] concerns the molecule itself. The experiment in a line: cryo-EM structure; 7 uM ecCTPS incubated with 0.58 mM DON, 1 mM CTP, 0.5 mM NADH and 10 mM MgCl2 for 30 min at 0 °C; single particle analysis of filaments, D2 symmetry, mask on the central tetramer.
Series [2] concerns the molecule itself. The series can be described thus: cryo-electron micrographs of filaments; purified ecCTPS^helix12+ in the product state (CTP); filaments seen in cryo samples.

B1: Escherichia coli CTP synthase (cytidine triphosphate synthase) (enzyme, UniProt P0A7E5 1-545, looked up)
chain: MTTNYIFVTGGVVSSLGKGIAAASLAAILEARGLNVTIMKLDPYINVDPGTMSPIQHGEVFVTEDGAETDLDLGHYERFIRTKMSRRNNFTTGRIYSDVLRKERRGDYLGATVQVIPHITNAIKERVLEGGEGHDVVLVEIGGTVGDIESLPFLEAIRQMAVEIGREHTLFMHLTLVPYMAASGEVKTKPTQHSVKELLSIGIQPDILICRSDRAVPANERAKIALFCNVPEKAVISLKDVDSIYKIPGLLKSQGLDDYICKRFSLNCPEANLSEWEQVIFEEANPVSEVTIGMVGKYIELPDAYKSVIEALKHGGLKNRVSVNIKLIDSQDVETRGVEILKGLDAILVPGGFGYRGVEGMITTARFARENNIPYLGICLGMQVALIDYARHVANMENANSTEFVPDCKYPVVALITEWRDENGNVEVRSEKSDLGGTMRLGAQQCQLVDDSLVRQLYNAPTIVERHRHRYEVNNMLLKQIEDAGLRVAGRSGDDQLVEIIEVPNHPWFVACQFHPEFTSTPRDGHPLFAGFVKAASEFQKRQAK
notes: CTP synthase of Escherichia coli, full-length gene in pET28a; In the cryo-EM sample it forms tetramers that stack into filaments; also called ecCTPS; wild-type ecCTPS; source: E. coli Transetta (DE3), purified (Ni-Agarose, Superose 6 Increase)
On to B1, for which, in series [1], the “stoichiometry N” value is 4.

B2: ecCTPS with an inserted hCTPS helix 12 (ecCTPS^helix12+) (enzyme, Escherichia coli | human)
chain: MTTNYIFVTGGVVSSLGKGIAAASLAAILEARGLNVTIMKLDPYINVDPGTMSPIQHGEVFVTEDGAETDLDLGHYERFIRTKMSRRNNFTTGRIYSDVLRKERRGDYLGATVQVIPHITNAIKERVLEGGEGHDVVLVEIGGTVGDIESLPFLEAIRQMAVEIGREHTLFMHLTLVPYMAASGEVKTKPTQHSVKELLSIGIQPDILICRSDRAVPANERAKIALFCNVPEKAVISLKDVDSIYKIPGLLKSQGLDDYICKRFSLNCPEANLSEWEQVIFEEANPVSEVTIGMVGKYIELPDAYKSVIEALKHGGLKNRVSVNIKLIDSQDVETRGVEEEPVRYHEAWQILKGLDAILVPGGFGYRGVEGMITTARFARENNIPYLGICLGMQVALIDYARHVANMENANSTEFVPDCKYPVVALITEWRDENGNVEVRSEKSDLGGTMRLGAQQCQLVDDSLVRQLYNAPTIVERHRHRYEVNNMLLKQIEDAGLRVAGRSGDDQLVEIIEVPNHPWFVACQFHPEFTSTPRDGHPLFAGFVKAASEFQKRQAK
notes: E. coli CTP synthase, the stretch before the insertion; Helix 12 of human CTPS1, inserted; H346 and W349 of the variant correspond to H355 and W358 of hCTPS1; E. coli CTP synthase, the stretch after the insertion; It ends with HHHHHH, which is written here as the tag; also called engineered ecCTPS
Take B2: the binding result in series [2] was “binds”.
